Test results reported in the supplement of paper PMC9170038.

Test system: K4 kissing-loop RNA reporter
Assay: apparent KD of K4 kissing-loop reporter; higher = weaker reporter binding
Conditions: Eterna round: R107
Protocol: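 RNA-MaP round R107: designed RNA switches with theophylline, tryptophan, arginine or FMN aptamers are transcribed on-chip within common flanks. They are titrated with a labelled K4 kissing-loop RNA reporter in RNA-MaP buffer (100 mM Tris pH 7.5, 80 mM KCl, 4 mM MgCl2), without ligand or with the indicated ligand. Median apparent KD per design.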

[1] = input ligand: theophylline 20 uM
[2] = input ligand: tryptophan 2.4 mM
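Also: bound reporter read as fluorescence of individual clusters on recovered sequencing chips by microscopy, with normalized cluster intensities fitted with a binding model.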

Sequence	apparent KD of K4 kissing-loop reporter (input ligand: FMN 200 uM) [nM]	apparent KD of K4 kissing-loop reporter (input ligand: arginine 13.2 mM) [nM]	apparent KD of K4 kissing-loop reporter (input ligand: none) [nM]	apparent KD of K4 kissing-loop reporter [1] [nM]	apparent KD of K4 kissing-loop reporter [2] [nM]
UGAUACCAGACGGCCGCCACUCCUAGUGAUGUUAGGAACCUAAAAUAGCAUGUCAAAGACAUGCGGAGGACCGGGUCUGGUAUCU [TrypBX 23 #SwitchBubble #Palindromic #StaticStem]	111	92.1	104	90.3	254
GUCAUGCGUUCAGGAUAUGGACCAAUUUAUAUUGCUUAUGCUGUGCCCUGUAUGGCAGUGAUGUUGCCAGAAGGGAGGGCAUGCA [Erbionvean]	116	88	96.6	111	102
AUACAUGUAAAUCUAUAUGUAUAAUGGAGCCGAGGACCGGUACGGCCGCCACUCGGAGUAAUCGGAGUGAUGUUCCGAAAUGUAC [KL-SSTryp-A sub13]	93.7	119	104	123	64.6
AGAGUUAUGAGAGGAUAUGCGGCUAGUACUCAAAGAGUACUAGCAGCGGAGUGAUGUUCUGUGAAAGCAGAAGGUUCAUAACUCA [#07 K4 FMN B Same State]	159	1350	1100	907	1350
AUGGUAUUGCGAGGAUAUCCUUCCCACGUCGAAGUACCGUGCUUGAUGGAGUGAUGUUCGAUCAGAGGAGAAGGCGCGGUGUUAU [Same State FMN B GF22]	706	368	572	645	639
GGAUAGGAUAGAGGAUAUGGCUUAUGCAGAAAUAACUUAUUGUGUAAAUCCAUAGGGAGUGAUGUUCCAGAAGGCUGUCCUAUCG [MatMod 16 - Jieux - Exclusion - FMN B]	821	218	235	224	202
AUGUACACGAUAGUGUACUCCUAGUGAUGUUAGGAUAUGCAGAUAUGCAGAAGGGACAAGUCAUCUGACAAUAGUCGGAUGACAA [FmnAX 10 #OpenEnded #K4Early]	179	85.6	109	114	91.5
AGAUGACAGGGAGGAUAUCCUAAUAUGGGUGAUGUUAGCGAUGUUGAAGGUGUAGUGAUGUUAUGCGGAGAAGGCCCUGUUGUUU [BDazzled - #23 - Exc. FMN B]	82.4	61.7	115	78.7	78.5
UUUUAAAUGUCUGAUACCAGAGAAAAUAUAUGUAGUGAUGUUAUAUACAAAUUAAAUAAGCUCCCUUGGCAGCAGUAUUAAUUUU [AstrosExc-TheB#10]	628	694	758	761	518
AGACCACAAAGUGGUCAGUGUUCGCUGCGGCGAGGACCGGUACGGCCGCCACUCGCGAGUGAUGUUCGCGAGCGCAGCGAACACA [Omei KL Tryp A Exc A v3]	89.4	88.8	92.7	65	88.5
CCAGCGGGCACGGCCGCCACUCUCUCGAGUGAUGUUUGCGGAGUCAGGCCGGCUCAGUACGUCACGAGGACCGGGUGCAAUUUAC [theeternabot_exclusion_KL_Trp_B_40]	986	425	829	506	460
GGAGUUACCUGGGAUACCAGUCGGAGUCCCAGAGCUCGGAGUGAUGUUCUGGGAUGUUUCGGCCCUUGGCAGCUCUGGGACUCCC [#2 Exclusion - Theophylline B Attempt #9 (HarryS)]	893	597	776	726	780
CCUAUCUCAUACGAUACCAGUCAAUGAUCUUUGAUCAAUGCCAUCACCGAGUGAUGUUCGGACCCUUGGCAGCGUAUGAGAUGGG [whbob_Ex_Theo_B_sa104]	276	203	255	376	246
UUAUAACCCAGUGAUGUUGGGUAGCGGCCACGAGGACCGGUACGGCCGCCACUCGAGGUUUGACCAGUGAUGUUGGACUAUUUGG [Same state Tryptophan A GF 5]	163	134	156	147	47.1
AUUUAAUUAACUGAUACCAGACUUUUUGUUUUGUAUAUUACUAGUGAUGUUAGUGUUUCUGUCCCUUGGCAGCAGUAUCUACUUA [JR_ExcTheophyB_Sub016]	197	252	225	298	157
UCCUACGAGGUAACGUGGAUAUCUCGUUGCAAGGAUAUCUGGAAACAGAGAAGGUGCAACAUUAUCAGCAGUGAUGUUGCUGACC	215	247	276	389	329
AACUGCUAAGAGGUUAAGCACGUCAUUAUGAAGGAUAUAGAAUUCACUAGAAGGUCAUGUGCCCUGAGUGAUGUUCAGAUAGGCG [theeternabot_sameState_KL_FMN_A_25]	294	229	236	421	336
AAGUACACGAUAGUGUACACCUAGUGAUGUUAGGAUAUGCAGAUAUGCAGAAGGAGCAAGUCAUCUGACAAUAGUCGGAUGACAA [FmnAX 7 #OpenEnded #K4Early]	315	63.2	89.4	107	80.2
UGUCAUUGGUCUGAUACCAGUACCCUUGGCAGCCAAGGAGUGAUGUUCCAAGGAUACCAGUGCCCUUGGCAGCAGACCGAUGACU [TheoBS 12 #DoubleAptamer #SwitchBubble]	920	563	1120	613	901
CACGAUGAAUUCUCUAGGAGUGAUGUUUUUCGAGGACCGGUACGGCCGCCACUCGGACCAGGAACGUGGGAGCGGCGAAAAGACU [jbmullin]	665	312	930	500	343
UGAUAGGACAGAAGGAGCGGUAGUGAUGUUGCCAAAAGUAUAAGGUGUCAAAAGACACCCUGCCAGGUAGGUCGCUGUCCUAUCU	134	228	187	190	137
